{
  "source": "paper PMC3903462",
  "about": "(Biochemistry, 2013)",
  "proteins": {"B1": {"name": "HsaD from Mycobacterium tuberculosis H37Rv (enzyme)", "chain": "MTATEELTFESTSRFAEVDVDGPLKLHYHEAGVGNDQTVVLLHGGGPGAASWTNFSRNIAVLARHFHVLAVDQPGYGHSDKRAEHGQFNRYAAMALKGLFDQLGLGRVPLVGNSLGGGTAVRFALDYPARAGRLVLMGPGGLSINLFAPDPTEGVKRLSKFSVAPTRENLEAFLRVMVYDKNLITPELVDQRFALASTPESLTATRAMGKSFAGADFEAGMMWREVYRLRQPVLLIWGREDRVNPLDGALVALKTIPRAQLHVFGQCGHWVQVEKFDEFNKLTIEFLGGGR"}},
  "molecular_target": "the molecule itself",
  "experiment": "SEC-MALS",
  "data": [
    {"protein": "B1", "values": [
      {"measurement": "stoichiometry N", "result": 4}
    ]}
  ]
}
